Key:
[1] = biological target: T1, VPS4A MIT domain (residues 1–84) (human, UniProt Q9UN37 1-84); assay: ITC; titrants (GST-pUL71, GST-CHMP6 or peptides) titrated into VPS4A MIT domain in the cell; 25°C; 50 mM HEPES pH 8, 100 mM NaCl, 0.5 mM TCEP; 19×2 μL or 12×3 μL injections; one-site binding model; details: both partners purified
T1 construct: human VPS4A, MIT domain, residues 1-84 of UniProt Q9UN37; cloned into pOPT3G with an N-terminal GST and a human rhinovirus 3C site; the tag was removed with 3C protease; also called VPS4 MIT domain; source: E. coli T7 Express lysY/Iq, purified (glutathione Sepharose, 3C cleavage, SEC); not shown: GST, N-terminal, cleaved
T1 sequence (looked up): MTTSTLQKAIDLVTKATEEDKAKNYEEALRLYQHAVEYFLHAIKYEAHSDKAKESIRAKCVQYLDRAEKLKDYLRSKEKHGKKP

[2] = biological target: T2, VPS4A MIT domain (residues 1–84) (human, UniProt Q9UN37 1-84); assay: ITC
T2 chain: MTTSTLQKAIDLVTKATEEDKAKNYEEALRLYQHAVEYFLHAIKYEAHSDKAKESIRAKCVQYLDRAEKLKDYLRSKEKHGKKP

[3] = tested on: pUL71 (YN fusion, TB71-YN); assay: Bimolecular fluorescence complementation in TB71-YN infected MRC-5 cells; format: cell-based, HCMV; details: MRC-5 infected with TB71-YN, MOI 1, 5 dpi
Source text: HCMV strains AD169 [92], Toledo [93], Merlin [94], VR1814 [95] and TB40/E [96] and two clinical isolates (isolates 19 and 20, kindly provided by C. Sinzger, Ulm University Hospital, Germany) were used in this study. This panel was chosen as it covers the most commonly used cell culture passaged strains and two isolates that grow highly cell associated. In addition, bacmid derived viruses were used. Reconstituted virus from bacterial artificial chromosome (BAC) clone TB40-BAC4 of the endotheliotropic HCMV strain TB40/E (accession number EF999921.1.) served as wild type virus (WT) in this study. Generation and propagation of recombinant viruses, TBstop71 and TBrev71 have been described elsewhere. […] The recombinant virus TB71-YN used for bimolecular fluorescence complementation (BiFC) assay, was generated by markerless BAC mutagenesis from BAC clone TB40-BAC4 by inserting the sequences corresponding to a (GGGGS)2-linker sequence, the c-myc-tag and the N-terminal fragment of the yellow fluorescent protein (YFP) variant Citrine, comprising amino acids 1–173 (YN), before the stop codon of the UL71 open reading frame. […]

Molecule	Kd [1]	dH [1]	stoichiometry N [1]	Kd [2]	Citrine fluorescence (BiFC) [3]
EQIELPEVPSEPLPEK (domain or fragment, human, UniProt Q96FZ7 166-181, looked up, human CHMP6 MIM2; pGEX4T2, annealed primers pGEX CHMP6 MIM2 fwd and rev; also called GST-tagged CHMP6 MIM2 motif; source: E. coli, purified following bacterial expression; not shown: GST, N-terminal, kept) [GST-CHMP6 MIM2]	5.54 µM	-2.37 kcal/mol	0.84	15.3 µM	–
YC-VPS4A-FLAG-L64D (protein, left off: Citrine residues 156-239 with A206K (YC), N-terminal, kept | FLAG, C-terminal, kept) MTTSTLQKAIDLVTKATEEDKAKNYEEALRLYQHAVEYFLHAIKYEAHSDKAKESIRAKCVQYDDRAEKLKDYLRSKEKHGKKPVKENQSEGKGSDSDSEGDNPEKKKLQEQLMGAVVMEKPNIRWNDVAGLEGAKEALKEAVILPIKFPHLFTGKRTPWRGILLFGPPGTGKSYLAKAVATEANNSTFFSVSSSDLMSKWLGESEKLVKNLFELARQHKPSIIFIDEVDSLCGSRNENESEAARRIKTEFLVQMQGVGNNNDGTLVLGATNIPWVLDSAIRRRFEKRIYIPLPEEAARAQMFRLHLGSTPHNLTDANIHELARKTEGYSGADISIIVRDSLMQPVRKVQSATHFKKVCGPSRTNPSMMIDDLLTPCSPGDPGAMEMTWMDVPGDKLLEPVVCMSDMLRSLATTRPTVNADDLLKVKKFSEDFGQES	–	–	–	–	Citrine fluorescence was detected

— PMC11218997, “Human cytomegalovirus deploys molecular mimicry to recruit VPS4A to sites of virus assembly” (PLOS Pathogens, 2024)
